Test results: article PMC10904395, “The Deinococcus protease PprI senses DNA damage by directly interacting with single-stranded DNA”

Biological target: T1, DG-PprI patch 1 mutant (Deinococcus geothermalis, UniProt Q1J1D6 1-289, R85A;R207A;R267A)
T1 sequence: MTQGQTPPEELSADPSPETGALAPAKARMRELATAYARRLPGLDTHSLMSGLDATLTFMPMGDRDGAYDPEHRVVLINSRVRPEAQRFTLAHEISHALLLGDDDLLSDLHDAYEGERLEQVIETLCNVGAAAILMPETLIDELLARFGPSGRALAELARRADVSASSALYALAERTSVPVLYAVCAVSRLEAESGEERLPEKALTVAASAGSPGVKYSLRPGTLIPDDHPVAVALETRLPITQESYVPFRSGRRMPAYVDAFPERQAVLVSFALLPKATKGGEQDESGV
Assay: EMSA; EMSA: 150 mM NaCl, 20 mM Tris-HCl pH 8.0, 0.1 mg/ml BSA, 0.1 uM FAM-labeled nucleic acid, 0/1/2 uM protein, room temperature 30 min, 10% native PAGE in 1x TB
Conditions: protein: recombinant; label: 5' FAM

CGCTCTTCGCCATTCTCTTGAAGTTTCAAACTTGG (ssDNA) [35nt ssDNA]
binding result: no binding
